Results published in US20200010853, “METHOD FOR INSERTING DESIRED DNA FRAGMENT INTO SITE LOCATED ADJACENT TO BINDING DOMAIN OF DNA-BINDING PROTEIN” (KYUSHU UNIVERSITY, NATIONAL UNIVERSITY CORPORATION, published 2020).

Target: Tn5 transposase (UniProt Q46731 Q46731:1-476)
Test: free adaptor added to Tn5 in fixed cells; integration with 5 mM MgCl2, 37 C; binding not measured separately
Conditions: chain copies: 2; partial duplex with 5' overhang
Protocol: Subsequently, TN5 transposase was added to the sample at a concentration of 85 μg/mL, and incubated at room temperature for 10 minutes. Thereby, transposase was bound to the transposase-binding sequence in the DNA fragment labeled to the nucleic acid-labeled secondary antibody.
Subsequently, a free DNA fragment (hereinafter, referred to as “oligo3-4”) having a transposase-binding sequence was added to the sample, reacted at room temperature for 1 hour, and then washed with PBS. The oligo3-4 was obtained by annealing a DNA fragment having a base sequence described in the Seq ID No. 3 and a DNA fragment having a base sequence described in the Seq ID No. 4. A double stranded DNA domain of the oligo3-4 was a binding sequence of TN5 transposase.

Sequence of Tn5 transposase (Q46731 whole entry, one chain of several): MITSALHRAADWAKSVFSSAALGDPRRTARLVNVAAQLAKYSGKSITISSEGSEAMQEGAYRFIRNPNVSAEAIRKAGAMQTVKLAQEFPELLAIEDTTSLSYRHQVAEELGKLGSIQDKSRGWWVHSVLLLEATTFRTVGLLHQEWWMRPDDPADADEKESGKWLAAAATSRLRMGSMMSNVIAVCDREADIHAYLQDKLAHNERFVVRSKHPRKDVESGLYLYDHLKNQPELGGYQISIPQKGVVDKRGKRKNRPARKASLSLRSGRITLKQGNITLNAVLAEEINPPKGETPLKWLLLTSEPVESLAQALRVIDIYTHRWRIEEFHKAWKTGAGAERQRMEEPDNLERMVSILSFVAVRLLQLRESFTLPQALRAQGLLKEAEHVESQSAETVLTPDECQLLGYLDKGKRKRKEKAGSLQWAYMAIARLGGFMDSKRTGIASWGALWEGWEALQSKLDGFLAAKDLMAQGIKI

B1: oligo3-4 free Tn5 adaptor (mixed)
DNA 1: GTCTCGTGGGCTCGGAGATGTGTATAAGAGACAG
DNA 2: CTGTCTCTTATACACATCT
binding result: binds
